Assay results taken from IntAct's records for PubMed 10531343.

B1: Synaptotagmin-10 (Mus musculus), Q9R0N4 (parent)
chain: MSFRKEDGVSSLCQKALHIITELCFAGQVEWDKCSGIFPADRSGQGGGGTDISVSLLAVVVSFCGLALLVVSLFVFWKLCWPCWKSKLVAPNLSVLPQSISSAPTEVFETEEKKEVEENEKPAPKAIEPAIKISHTSPDIPAEVQTALKEHLIKHARVQRQTTEPTSSSRHNSFRRHLPRQMNVSSVDFSVGTEPILQRGETRTSIGRIKPELYKQKSVDSEGNRKDDVKTCGKLNFALQYDYENELLVVKIIKALDLPAKDFTGTSDPYVKIYLLPDRKKKFQTRVHRKTLNPLFDELFQFPVVYDQLSNRKLHFSIYDFDRFSRHDMIGEVILDNLFEVSDLSREATVWKDIHCATTESIDLGEIMFSLCYLPTAGRMTLTVIKCRNLKAMDITGSSDPYVKVSLMCEGRRLKKRKTTTKKNTLNPVYNEAIIFDIPPENVDQVSLCIAVMDYDRVGHNEVIGVCRTGLDAEGLGRDHWNEMLAYHRKPITHWHPLLELPGRATSFDSQGSCSSPRPPSTP
partner: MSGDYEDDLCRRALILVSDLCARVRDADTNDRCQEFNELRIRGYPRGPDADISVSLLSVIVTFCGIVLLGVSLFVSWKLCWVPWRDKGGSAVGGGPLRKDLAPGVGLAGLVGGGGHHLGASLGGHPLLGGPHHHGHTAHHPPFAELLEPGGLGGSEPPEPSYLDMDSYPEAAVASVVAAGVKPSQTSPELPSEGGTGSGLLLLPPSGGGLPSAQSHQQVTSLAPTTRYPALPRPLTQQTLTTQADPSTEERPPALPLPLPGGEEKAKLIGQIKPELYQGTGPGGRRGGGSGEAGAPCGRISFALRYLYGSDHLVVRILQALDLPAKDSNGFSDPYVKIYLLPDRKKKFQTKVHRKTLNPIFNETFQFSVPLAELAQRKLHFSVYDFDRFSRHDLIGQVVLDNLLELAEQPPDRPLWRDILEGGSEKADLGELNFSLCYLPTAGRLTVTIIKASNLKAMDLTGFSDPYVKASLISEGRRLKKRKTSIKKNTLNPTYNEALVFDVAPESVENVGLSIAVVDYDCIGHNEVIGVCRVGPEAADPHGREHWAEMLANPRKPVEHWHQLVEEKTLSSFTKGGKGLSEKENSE
B2: Synaptotagmin-3 (Mus musculus), O35681 (parent)
chain: B1 partner
partner: B1 chain
B3: Synaptotagmin-6 (Mus musculus), Q9R0N8 (parent)
chain: MSGVWGAGGPRCQAALAVLASLCRARPPPLGLDVETCRSFELQSPEQSPSAADSGTSVSLLAVVVIVCGVALVAVFLFLFWKLCWMPWRKKEASSPSSANPASETLQSPSSRGNMADKLKDPSALGFLEAAVKISHTSPDIPAEVQMSVKEHIMRHTKLQRQTTEPASSTRHTSFKRHLPRQMHVSSVDYGNELPPAAAEQPTSIGRIKPELYKQKSVDGDDAKSEAAKSCGKINFSLRYDYESETLIVRILKAFDLPAKDFCGSSDPYVKIYLLPDRKCKLQTRVHRKTLNPTFDENFHFPVPYEELADRKLHLSVFDFDRFSRHDMIGEVILDNLFEASDLSRETSIWKDIQYATSESVDLGEIMFSLCYLPTAGRLTLTVIKCRNLKAMDITGYSDPYVKVSLLCDGRRLKKKKTTIKKNTLNPIYNEAIIFDIPPENMDQVSLLISVMDYDRVGHNEIIGVCRVGINAEGLGRDHWNEMLAYPRKPIAHWHSLVEVKKSFKEGTPRL
partner: B1 chain
B4: Synaptotagmin-3 (Mus musculus), O35681 (parent)
chain: B1 partner
partner: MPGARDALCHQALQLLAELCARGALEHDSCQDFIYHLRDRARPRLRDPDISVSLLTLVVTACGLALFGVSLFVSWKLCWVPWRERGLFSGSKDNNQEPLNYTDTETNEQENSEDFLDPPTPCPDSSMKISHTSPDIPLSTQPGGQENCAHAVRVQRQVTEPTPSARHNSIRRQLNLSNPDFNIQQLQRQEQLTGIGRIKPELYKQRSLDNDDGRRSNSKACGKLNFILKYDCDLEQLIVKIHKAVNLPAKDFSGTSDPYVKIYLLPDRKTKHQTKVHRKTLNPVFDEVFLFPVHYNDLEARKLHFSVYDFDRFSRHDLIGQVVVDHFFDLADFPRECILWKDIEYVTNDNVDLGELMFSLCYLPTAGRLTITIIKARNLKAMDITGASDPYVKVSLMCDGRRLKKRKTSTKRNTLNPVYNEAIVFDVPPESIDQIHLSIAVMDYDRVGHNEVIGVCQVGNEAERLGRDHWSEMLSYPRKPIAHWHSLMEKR
B5: Synaptotagmin-6 (Mus musculus), Q9R0N8 (parent)
chain: B3 chain
partner: B4 partner
B6: Synaptotagmin-10 (Mus musculus), Q9R0N4 (parent)
chain: B1 chain
partner: B4 partner

Variants of: B1
Settings: with syt3_mouse Syt3, O35681

effect of a mutation on the interaction | Variant
decreasing interaction | MSFRKEDGVSSLAQKALHIITELCFAGQVEWDKCSGIFPADRSGQGGGGTDISVSLLAVVVSFCGLALLVVSLFVFWKLCWPCWKSKLVAPNLSVLPQSISSAPTEVFETEEKKEVEENEKPAPKAIEPAIKISHTSPDIPAEVQTALKEHLIKHARVQRQTTEPTSSSRHNSFRRHLPRQMNVSSVDFSVGTEPILQRGETRTSIGRIKPELYKQKSVDSEGNRKDDVKTCGKLNFALQYDYENELLVVKIIKALDLPAKDFTGTSDPYVKIYLLPDRKKKFQTRVHRKTLNPLFDELFQFPVVYDQLSNRKLHFSIYDFDRFSRHDMIGEVILDNLFEVSDLSREATVWKDIHCATTESIDLGEIMFSLCYLPTAGRMTLTVIKCRNLKAMDITGSSDPYVKVSLMCEGRRLKKRKTTTKKNTLNPVYNEAIIFDIPPENVDQVSLCIAVMDYDRVGHNEVIGVCRTGLDAEGLGRDHWNEMLAYHRKPITHWHPLLELPGRATSFDSQGSCSSPRPPSTP [C13A]

Variants of: B2
Settings: with syt10_mouse Syt10, Q9R0N4

effect of a mutation on the interaction | Variant
decreasing interaction | MSGDYEDDLARRALILVSDLCARVRDADTNDRCQEFNELRIRGYPRGPDADISVSLLSVIVTFCGIVLLGVSLFVSWKLCWVPWRDKGGSAVGGGPLRKDLAPGVGLAGLVGGGGHHLGASLGGHPLLGGPHHHGHTAHHPPFAELLEPGGLGGSEPPEPSYLDMDSYPEAAVASVVAAGVKPSQTSPELPSEGGTGSGLLLLPPSGGGLPSAQSHQQVTSLAPTTRYPALPRPLTQQTLTTQADPSTEERPPALPLPLPGGEEKAKLIGQIKPELYQGTGPGGRRGGGSGEAGAPCGRISFALRYLYGSDHLVVRILQALDLPAKDSNGFSDPYVKIYLLPDRKKKFQTKVHRKTLNPIFNETFQFSVPLAELAQRKLHFSVYDFDRFSRHDLIGQVVLDNLLELAEQPPDRPLWRDILEGGSEKADLGELNFSLCYLPTAGRLTVTIIKASNLKAMDLTGFSDPYVKASLISEGRRLKKRKTSIKKNTLNPTYNEALVFDVAPESVENVGLSIAVVDYDCIGHNEVIGVCRVGPEAADPHGREHWAEMLANPRKPVEHWHQLVEEKTLSSFTKGGKGLSEKENSE [C10A]

Variants of: B3
Settings: with syt10_mouse Syt10, Q9R0N4

effect of a mutation on the interaction | Variant
decreasing interaction | MSGVWGAGGPRAQAALAVLASLCRARPPPLGLDVETCRSFELQSPEQSPSAADSGTSVSLLAVVVIVCGVALVAVFLFLFWKLCWMPWRKKEASSPSSANPASETLQSPSSRGNMADKLKDPSALGFLEAAVKISHTSPDIPAEVQMSVKEHIMRHTKLQRQTTEPASSTRHTSFKRHLPRQMHVSSVDYGNELPPAAAEQPTSIGRIKPELYKQKSVDGDDAKSEAAKSCGKINFSLRYDYESETLIVRILKAFDLPAKDFCGSSDPYVKIYLLPDRKCKLQTRVHRKTLNPTFDENFHFPVPYEELADRKLHLSVFDFDRFSRHDMIGEVILDNLFEASDLSRETSIWKDIQYATSESVDLGEIMFSLCYLPTAGRLTLTVIKCRNLKAMDITGYSDPYVKVSLLCDGRRLKKKKTTIKKNTLNPIYNEAIIFDIPPENMDQVSLLISVMDYDRVGHNEIIGVCRVGINAEGLGRDHWNEMLAYPRKPIAHWHSLVEVKKSFKEGTPRL [C12A]

Variants of: B4
Settings: with syt9_mouse Syt9, Q9R0N9

effect of a mutation on the interaction | Variant
decreasing interaction | MSGDYEDDLARRALILVSDLCARVRDADTNDRCQEFNELRIRGYPRGPDADISVSLLSVIVTFCGIVLLGVSLFVSWKLCWVPWRDKGGSAVGGGPLRKDLAPGVGLAGLVGGGGHHLGASLGGHPLLGGPHHHGHTAHHPPFAELLEPGGLGGSEPPEPSYLDMDSYPEAAVASVVAAGVKPSQTSPELPSEGGTGSGLLLLPPSGGGLPSAQSHQQVTSLAPTTRYPALPRPLTQQTLTTQADPSTEERPPALPLPLPGGEEKAKLIGQIKPELYQGTGPGGRRGGGSGEAGAPCGRISFALRYLYGSDHLVVRILQALDLPAKDSNGFSDPYVKIYLLPDRKKKFQTKVHRKTLNPIFNETFQFSVPLAELAQRKLHFSVYDFDRFSRHDLIGQVVLDNLLELAEQPPDRPLWRDILEGGSEKADLGELNFSLCYLPTAGRLTVTIIKASNLKAMDLTGFSDPYVKASLISEGRRLKKRKTSIKKNTLNPTYNEALVFDVAPESVENVGLSIAVVDYDCIGHNEVIGVCRVGPEAADPHGREHWAEMLANPRKPVEHWHQLVEEKTLSSFTKGGKGLSEKENSE [C10A]

Variants of: B5
Settings: with syt9_mouse Syt9, Q9R0N9

effect of a mutation on the interaction | Variant
decreasing interaction | MSGVWGAGGPRAQAALAVLASLCRARPPPLGLDVETCRSFELQSPEQSPSAADSGTSVSLLAVVVIVCGVALVAVFLFLFWKLCWMPWRKKEASSPSSANPASETLQSPSSRGNMADKLKDPSALGFLEAAVKISHTSPDIPAEVQMSVKEHIMRHTKLQRQTTEPASSTRHTSFKRHLPRQMHVSSVDYGNELPPAAAEQPTSIGRIKPELYKQKSVDGDDAKSEAAKSCGKINFSLRYDYESETLIVRILKAFDLPAKDFCGSSDPYVKIYLLPDRKCKLQTRVHRKTLNPTFDENFHFPVPYEELADRKLHLSVFDFDRFSRHDMIGEVILDNLFEASDLSRETSIWKDIQYATSESVDLGEIMFSLCYLPTAGRLTLTVIKCRNLKAMDITGYSDPYVKVSLLCDGRRLKKKKTTIKKNTLNPIYNEAIIFDIPPENMDQVSLLISVMDYDRVGHNEIIGVCRVGINAEGLGRDHWNEMLAYPRKPIAHWHSLVEVKKSFKEGTPRL [C12A]

Variants of: B6
Settings: with syt9_mouse Syt9, Q9R0N9

effect of a mutation on the interaction | Variant
decreasing interaction | MSFRKEDGVSSLAQKALHIITELCFAGQVEWDKCSGIFPADRSGQGGGGTDISVSLLAVVVSFCGLALLVVSLFVFWKLCWPCWKSKLVAPNLSVLPQSISSAPTEVFETEEKKEVEENEKPAPKAIEPAIKISHTSPDIPAEVQTALKEHLIKHARVQRQTTEPTSSSRHNSFRRHLPRQMNVSSVDFSVGTEPILQRGETRTSIGRIKPELYKQKSVDSEGNRKDDVKTCGKLNFALQYDYENELLVVKIIKALDLPAKDFTGTSDPYVKIYLLPDRKKKFQTRVHRKTLNPLFDELFQFPVVYDQLSNRKLHFSIYDFDRFSRHDMIGEVILDNLFEVSDLSREATVWKDIHCATTESIDLGEIMFSLCYLPTAGRMTLTVIKCRNLKAMDITGSSDPYVKVSLMCEGRRLKKRKTTTKKNTLNPVYNEAIIFDIPPENVDQVSLCIAVMDYDRVGHNEVIGVCRTGLDAEGLGRDHWNEMLAYHRKPITHWHPLLELPGRATSFDSQGSCSSPRPPSTP [C13A]
